For orientation: IC50 means the concentration that gives 50% inhibition. Read a high IC50 as weaker potency in that assay. The term EC50 denotes the concentration at which the effect is half-maximal. A lower EC50 goes with an effect from little substance.

This note sets out measurements from CN116355095A.

Experiment [1] addresses 人TIGIT-hFc (human) (UniProt Q495A1). Briefly: blocking ELISA: Bio-CD155 on coated TIGIT-hFc. For orientation: An ELISA detects its analyte on a solid surface through an enzyme-linked reagent.
In experiment [2] the target is T1, 人TIGIT重组蛋白 (hTIGIT; TIGIT-hFc 或 TIGIT-his) (human) (UniProt Q495A1).
T1 sequence (looked up): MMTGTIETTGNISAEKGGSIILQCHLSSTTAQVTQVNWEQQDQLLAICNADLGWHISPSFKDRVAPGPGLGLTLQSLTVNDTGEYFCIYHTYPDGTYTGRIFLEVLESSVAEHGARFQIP
Briefly: ELISA on coated hTIGIT.

In experiment [3] the target is 恒河猴TIGIT-mFc (rhesus monkey; mouse). Briefly: ELISA on coated RhTIGIT-mFc.
For experiment [4], the target named is T1, 人TIGIT重组蛋白 (hTIGIT; TIGIT-hFc 或 TIGIT-his) (human). Briefly: ELISA on coated hTIGIT. This is another data set of the same source.
Experiment [5] addresses T2, CHO-K1-T1001细胞表达的人TIGIT (human) (UniProt Q495A1).
T2 sequence (looked up): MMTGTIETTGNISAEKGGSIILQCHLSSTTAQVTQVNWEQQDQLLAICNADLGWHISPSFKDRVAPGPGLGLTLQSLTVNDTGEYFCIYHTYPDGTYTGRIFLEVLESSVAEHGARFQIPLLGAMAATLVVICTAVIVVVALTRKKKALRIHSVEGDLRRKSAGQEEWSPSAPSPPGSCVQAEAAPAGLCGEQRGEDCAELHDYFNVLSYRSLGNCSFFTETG
Briefly: cell ELISA on fixed hTIGIT+ CHO-K1 cells.

Experiment [6] concerns the target T2, CHO-K1-T1001细胞表达的人TIGIT (human). Briefly: cell ELISA on fixed hTIGIT+ CHO-K1 cells. This is another data set of the same source.
Experiment [7] has as its target 人TIGIT-hFc (human) (UniProt Q495A1). Briefly: blocking ELISA: Bio-CD155 on coated TIGIT-hFc. The source holds these as a separate data set.

Where two headings read alike, the source gives them in different places.

Sequence of 恒河猴TIGIT-mFc (rhesus monkey; mouse) (P01863 other isoform, or with tags, fused parts or gaps): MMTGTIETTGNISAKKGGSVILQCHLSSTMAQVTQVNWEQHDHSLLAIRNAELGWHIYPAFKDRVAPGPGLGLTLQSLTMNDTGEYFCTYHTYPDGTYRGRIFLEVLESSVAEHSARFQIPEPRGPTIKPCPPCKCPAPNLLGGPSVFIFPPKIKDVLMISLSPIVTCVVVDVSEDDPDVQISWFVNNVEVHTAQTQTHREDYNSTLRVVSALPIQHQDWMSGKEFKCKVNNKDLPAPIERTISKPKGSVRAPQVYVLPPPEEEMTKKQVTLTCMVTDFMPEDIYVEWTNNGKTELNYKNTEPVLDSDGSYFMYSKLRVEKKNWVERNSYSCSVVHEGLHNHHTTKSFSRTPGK

In the case of 阳性对照抗体Ref1 (罗氏RG6058) (antibody), the figures for the IC50 in the experiment with 人TIGIT-hFc (human) [1] and in the experiment with 人TIGIT-hFc (human) [7] were 3.3 nM and 1.19 nM, respectively. The concentration for a half-maximal effect (EC50) in experiment [2] turned out to be 1.13 nM; in experiment [3], 0.243 nM; in experiment [4], 0.462 nM; in experiment [5], 0.0268 nM; in experiment [6] it was 0.138 nM.
